# pKd: −log10 of the molar value.
# Key:
# [1] = biological target: PAR-2 RING domain (PAR-2 residues 40-120, core RING domain and flanking dimerization helices) (C. elegans); experiment: SEC-MALS; input sample 0.75 mg/ml, wild type compared with L109R; Superdex 75 Increase 10/300 GL, 20 mM Tris-HCl, 150 mM NaCl, 0.5 mM TCEP pH 7.5
# [2] = biological target: PAR-2 RING domain (PAR-2 residues 40-120, core RING domain and flanking dimerization helices) (C. elegans); experiment: SEC-MALS; input samples from 10 to 0.5 mg/ml, 100 µl on Superdex 75 Increase 10/300 GL, 20 mM Tris-HCl, 150 mM NaCl, 0.5 mM TCEP pH 7.5, 1.0 ml/min; weight-averaged molecular weight fitted to a monomer-dimer model
# [3] = biological target: PAR-2 RING domain (PAR-2 residues 40-120, core RING domain and flanking dimerization helices) (C. elegans); experiment: AUC; sedimentation equilibrium, interference data, 20,000 and 24,000 rpm, three PAR-2 RING concentrations, 20 mM Tris-HCl, 150 mM NaCl, 0.5 mM TCEP; global fit to a monomer-dimer model (SEDPHAT); dimer to monomers
# [4] = biological target: PAR-2 RING domain (residues 40-120) L109R (C. elegans); experiment: SEC-MALS; input sample 0.75 mg/ml, wild type compared with L109R; Superdex 75 Increase 10/300 GL, 20 mM Tris-HCl, 150 mM NaCl, 0.5 mM TCEP pH 7.5
# [5] = biological target: mNG::PAR-2(L109R) (endogenously tagged PAR-2 with L109R) (C. elegans)
substance,measurement,setting,value
"PAR-2 RING domain (PAR-2 residues 40-120, core RING domain and flanking dimerization helices) (domain or fragment)",dimer fraction at 0.75 mg/ml,[1],35%
same,stoichiometry N,[2],2
same,pKd,[3],6.45
PAR-2 RING domain (residues 40-120) L109R (domain or fragment),dimer fraction at 0.75 mg/ml,[4],5%
same,fold reduction in dimer affinity against wild type,[4],10 fold
mNG::PAR-2(L109R) (endogenously tagged PAR-2 with L109R) (natural protein),"fold reduction in dimerization affinity against PAR-2(WT), from the simultaneous fit of the model to membrane and cytoplasmic concentrations in embryos (common KD^mem)",[5],6 fold

# Source: paper PMC11294563
